These results are taken from paper PMC10838023 (Molecular microbiology, 2023).

Series [1] deals with T1, GfcR-StrepII (Haloferax volcanii (expressed in H26), UniProt Q8NKQ2 1-210).
T1 sequence: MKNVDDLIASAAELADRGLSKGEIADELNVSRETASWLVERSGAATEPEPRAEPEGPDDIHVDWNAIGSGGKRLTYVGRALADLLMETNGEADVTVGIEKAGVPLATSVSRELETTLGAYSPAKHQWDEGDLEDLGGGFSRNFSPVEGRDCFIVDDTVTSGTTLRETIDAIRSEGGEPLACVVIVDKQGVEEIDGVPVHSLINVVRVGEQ
Description: EMSA.

Series [2] deals with the molecule itself. Description: SEC.

B1: PptfC (dsDNA)
DNA 1: GGACCTCGAAGACGTGCTGACGAACGAAACGCACGTCGAGGTGACGACCGTTCGGACCCGGTGACTCTCGGATGAACGTTTGTTAACGACCGAAACACGCAGTAACGTTCATATTCGAAAGGGTTTTTGAGCACATTTGCGTACGTTCTTTCGTAGGGGTGGCAACACTATG
DNA 2: CATAGTGTTGCCACCCCTACGAAAGAACGTACGCAAATGTGCTCAAAAACCCTTTCGAATATGAACGTTACTGCGTGTTTCGGTCGTTAACAAACGTTCATCCGAGAGTCACCGGGTCCGAACGGTCGTCACCTCGACGTGCGTTTCGTTCGTCAGCACGTCTTCGAGGTCC
Turning to B1, the binding result in series [1] is recorded as “binds”.

B2: GfcR-StrepII (glucose and fructose catabolism regulator GfcR of Haloferax volcanii with a C-terminal StrepII tag) (natural protein, UniProt Q8NKQ2 1-210, looked up)
chain: MKNVDDLIASAAELADRGLSKGEIADELNVSRETASWLVERSGAATEPEPRAEPEGPDDIHVDWNAIGSGGKRLTYVGRALADLLMETNGEADVTVGIEKAGVPLATSVSRELETTLGAYSPAKHQWDEGDLEDLGGGFSRNFSPVEGRDCFIVDDTVTSGTTLRETIDAIRSEGGEPLACVVIVDKQGVEEIDGVPVHSLINVVRVGEQ
Turning to B2, the “stoichiometry N” value in series [2] is 4.
